Measured values: article PMC8585947, “Structure of Escherichia coli cytochrome bd-II type oxidase with bound aurachin D” (Nature Communications, 2021)

T1: AppC, subunit of Escherichia coli cytochrome bd-II oxidase (E. coli, UniProt P26459 1-514)
T1 construct: AppC, cytochrome bd-II oxidase subunit, E. coli; predicted molecular mass 58.1 kDa; gene amplified from genomic DNA of strain BW25113; also called AppChis
T1 sequence: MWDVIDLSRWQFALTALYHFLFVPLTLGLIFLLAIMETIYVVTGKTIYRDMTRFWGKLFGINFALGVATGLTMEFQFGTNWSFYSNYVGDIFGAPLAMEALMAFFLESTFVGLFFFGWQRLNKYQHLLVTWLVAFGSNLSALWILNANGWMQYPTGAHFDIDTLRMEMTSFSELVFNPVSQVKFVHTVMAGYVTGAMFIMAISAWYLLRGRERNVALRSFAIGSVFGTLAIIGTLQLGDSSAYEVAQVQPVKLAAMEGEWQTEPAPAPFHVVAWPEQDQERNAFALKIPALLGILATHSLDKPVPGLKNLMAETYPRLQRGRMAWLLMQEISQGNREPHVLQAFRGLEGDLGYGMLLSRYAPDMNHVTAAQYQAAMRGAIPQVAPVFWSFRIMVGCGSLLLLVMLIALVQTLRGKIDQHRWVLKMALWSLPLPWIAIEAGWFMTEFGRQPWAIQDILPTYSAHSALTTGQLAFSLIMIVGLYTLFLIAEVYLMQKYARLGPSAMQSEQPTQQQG


Key:
[1] = target: T1, AppC, subunit of Escherichia coli …; test: cryo-EM structure; bd-II in amphipol A8-35, 5.6 mg/mL, incubated with aurachin D; 20 mM MOPS, 20 mM NaCl, pH 7.0; C2 symmetry imposed; 3.0 Å; conditions: both partners purified
[2] = target: the molecule itself; test: as above

binding result [1]	Binder	binding result [2]
binds	AppB, subunit of Escherichia coli cytochrome bd-II oxidase (natural protein, AppB, cytochrome bd-II oxidase subunit, E. coli; predicted molecular mass 42.4 kDa; gene amplified from genomic DNA of strain BW25113) not shown	–
binds	MWYLLWFVGILLMCSLSTLVLVWLDPRLKS (natural protein, E. coli, AppX, cytochrome bd-II oxidase subunit, E. coli; length of 30 amino acid residues; predicted molecular mass 3.6 kDa; gene amplified from genomic DNA of strain BW25113) [AppX, single helix subunit of Escherichia coli cytochrome bd-II oxidase]	binds
